Measured values taken from the supplement of paper PMC10126150.
± gives the standard deviation of the averaged measurements.

System: ATP
Assay: switch fluorescence ratio, 500 uM ATP over buffer (Cy3 cluster intensity, sum of 5 cycles each) (fold (ratio)); higher = stronger signal-on switching upon ATP binding; sequences stand for … in TCGTCGGCAGCGTCAGATGTGTATAAGAGACAGTTTTTTTTTTTTTTTTTTTTTTTTT…TC
Settings: aptamer strand: ATP DNA aptamer (quencher-CACCTGGGGGAGTATTGCGGAGGAAGG + anchor), 100 nM annealed; ATP concentration: 500 uM
Procedure, shortened: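 Values give the fluorescence ratio for each switch-domain sequence, averaged from per-cluster ratios of summed target-cycle to summed buffer-cycle Cy3 intensity. The Cy3-labelled switching-strand clusters sat on a modified Illumina MiSeq flow-cell, were annealed to 100 nM quencher-labelled ATP aptamer, and were imaged in selection buffer, then after 15 min with 500 uM ATP at 22 °C. Five cycles ran with NaOH stripping and re-annealing between them, and clusters outside 100-1000 RFU were excluded.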
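Further: ATP exposure 15 min at 22 °C before imaging.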

| Sequence | switch fluorescence ratio |
| --- | --- |
| ATCCAGT | 1.036 ± 0.0033 |
| ATCCATACAA | 1.03 ± 0.035 |
| ATCCATTCA | 1.02 ± 0.0094 |
| ATCCGAAGAT | 1.04 ± 0.016 |
| ATCCGAGTCA | 1.07 ± 0.014 |
| ATCCGGGACC | 1.06 ± 0.02 |
| ATCCGGGATG | 1.03 ± 0.021 |
| ATCCGGGGGA | 1.04 ± 0.11 |
| ATCCGTAGGT | 0.995 ± 0.029 |
| ATCCGTGGTT | 1.01 ± 0.047 |
| ATCCGTGTCG | 1.02 ± 0.048 |
| ATCCTCGTTG | 1.02 ± 0.03 |
| ATCCTGGATA | 1.003 ± 0.01 |
| ATCCTGGGTG | 3.73 ± 1.5 |
| ATCCTTGCG | 1.022 ± 0.0053 |
| ATCCTTGGTC | 1.01 ± 0.023 |
| ATCGAAGCCA | 1.091 ± 0.0016 |
| ATCGAGAGGT | 0.973 ± 0.019 |
| ATCGAGGGGA | 0.978 ± 0.019 |
| ATCGAGGGGT | 0.955 ± 0.037 |
| ATCGATATTG | 0.991 ± 0.029 |
| ATCGATTGTT | 1.01 ± 0.031 |
| ATCGCATATG | 1.08 ± 0.053 |
| ATCGCGACTA | 1.05 ± 0.036 |
| ATCGCGAGGA | 1.026 ± 0.0025 |
| ATCGCGTGTG | 1.009 ± 0.0062 |

| Sequence | switch fluorescence ratio |
| --- | --- |
| ATCGCTTAGG | 1 ± 0.012 |
| ATCGGAATAA | 1.4 ± 0.025 |
| ATCGGACGCG | 0.987 ± 0.016 |
| ATCGGATGGC | 1.06 ± 0.02 |
| ATCGGGAGAT | 0.9833 ± 0.0076 |
| ATCGGGAGCC | 0.959 ± 0.03 |
| ATCGGGCTGT | 1.03 ± 0.013 |
| ATCGGGGAGA | 0.997 ± 0.017 |
| ATCGGGGGA | 1.02 ± 0.051 |
| ATCGGGGGTC | 0.946 ± 0.032 |
| ATCGGGGGTT | 0.987 ± 0.023 |
| ATCGGGGTCC | 1.02 ± 0.019 |
| ATCGGGTAA | 0.9965 ± 0.0029 |
| ATCGGGTCGG | 1.01 ± 0.03 |
| ATCGGTGGGG | 0.963 ± 0.019 |
| ATCGTATGGA | 0.998 ± 0.013 |
| ATCGTGATGG | 1.03 ± 0.04 |
| ATCGTGGGAA | 0.9793 ± 0.0059 |
| ATCGTGGGGG | 1 ± 0.028 |
| ATCGTGTTGA | 0.971 ± 0.02 |
| ATCGTTATCA | 0.991 ± 0.056 |
| ATCGTTCGTG | 0.99714 ± 0.00096 |
| ATCGTTCTGT | 0.966 ± 0.025 |
| ATCGTTGAGG | 0.986 ± 0.023 |
| ATCGTTGCGG | 1.1 ± 0.099 |
| ATCGTTGTA | 1.04 ± 0.069 |

| Sequence | switch fluorescence ratio |
| --- | --- |
| ATCGTTGTAC | 1.18 ± 0.048 |
| ATCGTTTAAT | 0.9671 ± 0.003 |
| ATCTACATTA | 1.04 ± 0.015 |
| ATCTACGTTG | 1.05 ± 0.012 |
| ATCTAGGTCA | 1.02 ± 0.037 |
| ATCTAGTTTG | 1.01 ± 0.045 |
| ATCTATCGTG | 0.991 ± 0.021 |
| ATCTATGGTG | 1.02 ± 0.02 |
| ATCTCTGGGT | 1 ± 0.033 |
| ATCTCTGGTC | 0.976 ± 0.027 |
| ATCTGAGAGG | 1.003 ± 0.0031 |
| ATCTGGAATA | 1.24 ± 0.039 |
| ATCTGGCTCG | 0.988 ± 0.016 |
| ATCTGTTTTT | 0.972 ± 0.0075 |
| ATCTTAATG | 1.01 ± 0.05 |
| ATCTTAGTGC | 1 ± 0.026 |
| ATCTTCAATT | 1.005 ± 0.0055 |
| ATCTTGAGAC | 1.02 ± 0.042 |
| ATCTTGGGTT | 1.006 ± 0.0064 |
| ATCTTGTGGC | 0.972 ± 0.032 |
| ATCTTGTGTC | 0.945 ± 0.02 |
| ATCTTGTTGG | 1.13 ± 0.27 |
| ATCTTTATGT | 1.03 ± 0.017 |
| ATCTTTCGCG | 1.02 ± 0.015 |
| ATCTTTTAGG | 1.07 ± 0.11 |
| ATGAAATCTG | 1.06 ± 0.074 |

| Sequence | switch fluorescence ratio |
| --- | --- |
| ATGAAGAGAG | 0.9897 ± 0.0069 |
| ATGAAGCTAG | 1.06 ± 0.013 |
| ATGAAGGGAA | 0.999 ± 0.017 |
| ATGAAGGGTG | 1.04 ± 0.036 |
| ATGAAGTTGT | 1.019 ± 0.01 |
| ATGAATCTTG | 1.02 ± 0.032 |
| ATGAATGTTT | 1 ± 0.026 |
| ATGAATTTGG | 0.973 ± 0.025 |
| ATGACCGGTT | 1.01 ± 0.046 |
| ATGACCTCGG | 1.02 ± 0.07 |
| ATGACGAAGC | 1.57 ± 0.13 |
| ATGACGCCTG | 1 ± 0.022 |
| ATGACTTGCG | 1 ± 0.023 |
| ATGACTTGGG | 0.96 ± 0.011 |
| ATGACTTTGG | 0.977 ± 0.028 |
| ATGAGAAGGC | 0.997 ± 0.038 |
| ATGAGACCCT | 1.07 ± 0.036 |
| ATGAGAGCTT | 0.982 ± 0.011 |
| ATGAGATAGG | 0.982 ± 0.045 |
| ATGAGATTGC | 0.9899 ± 0.0076 |
| ATGAGGCACG | 1.05 ± 0.068 |
| ATGAGGGCAG | 0.993 ± 0.018 |
| ATGAGGGGCA | 0.98 ± 0.026 |
| ATGAGGTTTG | 1.01 ± 0.019 |
| ATGAGGTTTT | 0.991 ± 0.012 |
| ATGAGTCTTT | 0.9801 ± 0.0079 |

| Sequence | switch fluorescence ratio |
| --- | --- |
| ATGAGTGCTC | 0.98 ± 0.0086 |
| ATGAGTGGAG | 1.034 ± 0.004 |
| ATGAGTTACT | 1.005 ± 0.0051 |
| ATGAGTTGGT | 0.982 ± 0.033 |
| ATGAGTTTTG | 0.984 ± 0.029 |
| ATGATACAGG | 1.08 ± 0.039 |
| ATGATATGTT | 0.992 ± 0.034 |
| ATGATGCAGA | 1.004 ± 0.008 |
| ATGATGCTTG | 0.993 ± 0.045 |
| ATGATGGGGA | 0.987 ± 0.021 |
| ATGATGGGTG | 1.01 ± 0.02 |
| ATGATGGTCC | 0.9778 ± 0.0014 |
| ATGATGGTTA | 0.9978 ± 0.0052 |
| ATGATTGACC | 1.083 ± 0.0026 |
| ATGATTTTTC | 0.976 ± 0.039 |
| ATGCAACCAT | 1.01 ± 0.013 |
| ATGCACGTGG | 1.008 ± 0.003 |
| ATGCACTGGG | 1.08 ± 0.05 |
| ATGCATAGAT | 1.01 ± 0.032 |
| ATGCATGAAA | 1 ± 0.017 |
| ATGCATGGGC | 1.03 ± 0.022 |
| ATGCATGTGC | 0.983 ± 0.01 |
| ATGCATTAAT | 0.997 ± 0.015 |
| ATGCATTGCG | 0.99777 ± 0.00081 |
| ATGCATTGGA | 1.01 ± 0.029 |
| ATGCCGGAG | 0.986 ± 0.028 |

| Sequence | switch fluorescence ratio |
| --- | --- |
| ATGCGAAGGT | 1.04 ± 0.037 |
| ATGCGAATAT | 0.989 ± 0.015 |
| ATGCGAGTGG | 1.01 ± 0.047 |
| ATGCGATGGC | 1.02 ± 0.0072 |
| ATGCGCCGGT | 1.011 ± 0.0027 |
| ATGCGGCATT | 1.03 ± 0.044 |
| ATGCGGGCCC | 0.99 ± 0.012 |
| ATGCGGGGGC | 1.045 ± 0.0046 |
| ATGCGGGGGT | 0.993 ± 0.037 |
| ATGCGGGTGC | 1.04 ± 0.039 |
| ATGCGGGTTT | 1.02 ± 0.018 |
| ATGCGTCGCG | 0.986 ± 0.025 |
| ATGCGTGGAA | 1.02 ± 0.027 |
| ATGCTAACGT | 0.9818 ± 0.0032 |
| ATGCTATGCG | 1.008 ± 0.01 |
| ATGCTATGGT | 0.987 ± 0.013 |
| ATGCTGGGCG | 1.02 ± 0.041 |
| ATGCTGTTGG | 1 ± 0.026 |
| ATGCTTCTTT | 0.9854 ± 0.0053 |
| ATGGAAAGGG | 0.989 ± 0.041 |
| ATGGAACCGT | 1.02 ± 0.027 |
| ATGGAACCTT | 1.28 ± 0.34 |
| ATGGAAGGGA | 1.15 ± 0.21 |
